Measurements published in US20050214312A1.

Target: recombinant human or murine heat shock protein 70 (hsp70) (human or murine)

RGYVYQGL (modifications not checked) [RGYVYQGL (VSV nucleoprotein amino acids 52-59)]
Kd: 82 µM
